Data published in patent US20230036503A1, “Fusion Protein, Amino Acid Sequence Thereof, Coding Nucleotide Sequence Thereof, Preparation Method Thereof and Use Thereof” (priority 2019, published 2023).

Tested on: Fusarium graminearum
Format: in vivo
Details: corn leaves, 100 nM

B1: His-MP7: heptapeptide fusion protein, SEQ ID NO: 15: elf18, csp22, flg22, flgII-28, nlp20, pep1, pip1 in sequence, linkers GAG and AGA, HIS tag (protein)
chain: MGSSHHHHHHSSGLVPRGSHMASMTGGQQMGRDPNSSSVDKLSKEKFERTKPHVNVGTIGGAGAVGTVKWFNAEKGFGFITPDDGAGAQRLSTGSRINSAKDDAAGLQIAGAGESTNILQRMRELAVQSRNDSNSATDREAGAGAIMYSWYFPKDSPVTGLGHRAGAATKVKAKQRGKEKVSSGRPGQHNAGARLASGPSPRGRGH
modifications: his-MP7
scab area percentage (3-4 days, untreated 12.3%): 3.6% | infection rate of Fusarium graminearum lowered by (versus untreated): 70.8%
